Measured values from the DeepSol protein solubility set.

test: soluble on expression in E. coli; label from the status in PepcDB or PDB records

Soluble on expression in E. coli, not soluble:
MGSDKIHHHHHHMKILMLCREPRLYSCQRLKQACQDRNIQLDILDPNRMLIKLAVIDAQMQAQLYYQAGEIYDKCRAEPSLLAEYDAVLPRFGVSSTMMGCRVLDYFAAKKVVILNNSTAFRLARDKWSSLQVLAAQHIPIPTSSFAGALFSTAAHISQHRIPLVIKTCSGSQGVGVMLSESKVHSVSLLQTLQQAKVDNLLQDFVVEARGQDIRAFVIGDRVVAAIERNGLENDFRANIHQGGSASVIQLNTAEQQLAVLAAKTIGLDVAGVDLIRSNKGLLVLEVNACPGLDGIEKASKLDIAGLIIDYLLAMKK
MGSDKIHHHHHHACTDGINETVISAYQLPVLPEPSYKFSRNGESSVNVLECGFLKSPIDRIFSEYMNEARMSTKRDYDEALRIYHEGNFGLKPQKEVSASSKHLKDRDKILKDIDAWFETSARIAGLGANIPSYEHRNREAVKGLTGYVGNGIGDKDICYVDERGIAVAEVYKYAIMGAIYLDKILNIHLSEQILENNEVLVRNDLTQLLPGHNYTELEHHWDLAYGYYDFWKTLAQSDGLPALKDCHLRISRSFVKGRALMTTSQYDEMRLQADTIRQELSRVVAVRAMHLLVGPNTLANLKENPRRAFRLLSQAYGLIYAAQFARNMEGKSFLTNEETGILLHELEKGDGLWDKERLLGREQTEGALYNLAVRIGEKFDVSPEDIKK
MAHHHHHHMHECKDDRVLEKIQQINGYENIKLGDKKVLCDEIWTVTRCDKKFSYWIRYYEEDKNGYSLSVLPTQLKNIYYFLKYYYF
MKAIISYETPLEQAHFTAKNDEKNMFYKENTEESVEGSLQYDVLDAVGEFKGQPGYIVCNNISVTDEGRPVFENRFKNRAGLIENEPGFQAIRVLRPLSNDTYVILTMWETEQNFKDWTESRSFENAHKKRPVQAEGQAPAHPHAEQQKSIFSRPSFVTTFDVLV
MGSDKIHHHHHHMYQPGIVFLFSGHKIGYINERTFRYDTNEYLLLTVPLPFECETFATPEVPLAGMRLNVDILQLQELLMDIGEDPLFQPAVASSGINSAVLSEDILCAAERLLDVMERPLDARILGKQIVREILYYVLTGPCGGALLALVSRQTHFSLISRVLKHIESQYTENLSVDRLAAEANMSVSAFHHNFKAVTSTSPLQYLKNYRLHKARMLMIHDGMKASAAAMRVGYESPSQFSREFKRYFGLTPGEDAARIRTMQGM
MADLQKNFQTSFRDAMASCAAGVHVITTDGAAGRYGITMTAVAPVTDEPPTVMLCINRSARIIPILSENGSLCINTLADEHQDVAEHFAGLTGLSPEERFAYHIWHRGKTGQLEIEGALAHLHGHIVGKHEIGTHFVFYVRLDEIKNCGCKRPALLYFRRQFRFLD
MSELLAGTKLINQDSEELDAGEHLKGKVVGLYFSASWCPPCRQFTPKLTRFFDEIRKKHPEFEVVFVSRDREDGDLREYFLEHMGAWTAIPFGTPRIQELLEQYEVKTIPSMRIVKPNGDVVVQDARTEIQDKGNDPEALWEEWLAFYD
MSESAFKDCFSTDVSADTRLFHFLARDYIVQEGQQPSWLFYLTRGRARLYATLANGRVSLIDFFAAPCFIGEIELIDKDHEPRAVQAIEECWCLALPMKHYRPLLLNDTLFLRKLCVTLSHKNYRNIVSLTQNQSFPLVNRLAAFILLSQEGDLYHEKHTQAAEYLGVSYRHLLYVLAQFIHDGLLIKRKDI
MGSDKIHHHHHHMREAMYWKPLGDGRVRCELCPLRCIIDEGKRGSCKIRINKGGKLYTLNYGKVSSIALDPIEKKPLFHFWPGSCALSIGTVGCNMHCKHCQNWEISQADESFPYLQDATPEAIVSLAKHYECESIAYTYNEPTIWYEFVLDTAKLARKEGLNNILVTNGYINEEPFRELAPYIDAMNIDIKAFDDKFYMKIASVPSGEPSRRIAEIAKKEFKIHVELTYLIIPTLNDKEEEIREFARWVVENLGDDTPVHFSRFFPHYKLLNLPPTPIETLEKAYKIAKEEGLKFVYLGNVPGHPGENTYCPSCGKLLIERWGFDIIRYDIVDGKCKYCGEKIPIVGKYQKKKYRGMWW
MGSDKIHHHHHHMNSELEINLRKLGFSVYEAKVYLTLLNLCNSTMKELSENAEIPYQKVYEVVKSLEDKGLVRVIEGRPKKVKLIDPSISLKVYRDKIVSELDYAIGNVISYWSEKGKGEADRSLHIKGKTIVMRMIRELVDKSNKIKVVWDILPEWLIKILKKYKGNLTVITSSNNLSLNAEVKYVKNIKSKFIIFDDSVLVTFNDQDEIVVDSCRGCVLQAEEHFDLLTYKSE
MAHHHHHHMTVHLLWIINQSGQLIAKSSFTAPENIGELGAKPDLQLTMSSILFSTYGMSQELTPNANPVDSAGMTLVECEEHNIHIYETPTLVKFVLVSDSRTRECNALFRELHSLYVEYVMKNPFHIVDEGGIGQPIRIAAFTGAVKRAVDRYHAAGVSNATRK
MLKFKNRIVEKRVKGAEKASFGGPVLLYRTLRKVTKLYKYITDKKSFPILVTSLFALFNPNSVLAADKYSNFEELKENESPLSYNILTTDVDRRVLILAPHGGGIEGGTSELARELSKSYSAYLFEGLRIPGASELHITSTNFDEPQALDLLSKHDLTISIHGYASSKKHTLVGGTDREKAAKITSLLTDAGFSAELLSEDSRLAGTNEQNIANKNSTGMSIQLEISTEQRREMFNTFTLAGRNGTQNQVFYDYIAVLTKFINENVYCMAGVAPLEHHHHHH

Soluble on expression in E. coli, soluble:
MPDADVNDFELVDVDQKAADKAIKDLGVKATIDEVCTVGEEGYVVTATDKEGYGGDIKITVGITADGTINGISILSISETAGLGMRATEPAFYEQYQGKQAEKFVVSKDGGDGEPIDALSGATITSRAVTGAVNAALGYYQNAFLEHHHHHH
RKDFTKEEVNYLFHGVKTMGNHWNSILWSFPFQKGRRAVDLAHKYHRLI
QCTGGADCTSCTGACTGCGNCPNAVTCTNSQHCVKANTCTGSTDCNTAQTCTNSKDCFEANTCTDSTNCYKATACTNSSGCPGH
MVNYENVIVTEITETLTFFAQSVESGSKLESLMSKLHADFQSNPPIAGSYTPKRGDLVAAQFTLDNQWYRAKVERVQGSNATVLYIDYGNKETLPTNRLAALPPAFSSEKPYATEYALALVALPTDNEDKEEALRAFSEDVLNHKVQLNVELKVTGSPNLATLRDPTTKVDFGKQLVAEGLVLAEQRGERKLKELVDQYKAAQEAARVAHLAIWKYGD
MGHHHHHHSHMATNAKPVYKRILLKLSGEALQGTEGFGIDASILDRMAQEIKELVELGIQVGVVIGGGNLFRGAGLAKAGMNRVVGDHMGMLATVMNGLAMRDALHRAYVNARLMSAIPLNGVCDSYSWAEAISLLRNNRVVILSAGTGNPFFTTDSAACLRGIEIEADVVLKATKVDGVFTADPAKDPTATMYEQLTYSEVLEKELKVMDLAAFTLARDHKLPIRVFNMNKPGALRRVVMGEKEGTLITE
STDYGEEQRNELEALESIYPDSFTVLSESPPSFTITVTSEAGENDETVQTTLKFTYSEKYPDETPLYEIFSQENLEDNDVSDILKLLALQAEENLGMVMIFTLVTAVQEKLNEIVDQIKTRREEEKKQKEKEAEEAEKKLFHGTPVTIENFLSWKAKFDAELLEIKKKRMKEEEQAGKNKLSGKQLFETDHNLDTSDIQFLEDAGNNVEVDESLFQEMDDLELEDGEDDPDYNPVAPGSDSSD
VPKLVDHDERRRSITAAAWRLIAARGIEAANMRDIATEAGYTNGALSHYFAGKDEILRTSYEHISEATDRRIAEALGDATGLDALRILCREVMPINEEQLLEARIAASLWPRAMYDEQMAATNRRTMDNWREQMAIFLEQAREEGSVGDIDVTIVVEQLLNMMMGMQILGVLTPGETSSERQLEMLEQFVAAL
MRFIPLIVARPEVQMAIDEAILIARSEGRVPDTVRLYVFKPSSVTIGRFQSVRYDVNLEKAKELGIPVVRRITGGGSVFHDEYGEITYSVVISEDYHPMLKNIQDSYRFLAGPLVDALKDLGIEAEFSGLNDIVVRGKKISGSAQTRRRGIILQHGTLMYATRLEILGSVLKVSKEKLKDKGVKSIFERVTTLEREGIKVGRNEMYEVLRNSFFRAFPLDEGELTEYELELVEKLIEERYGNDKWNFQKLEHHHHHH
GPGYNEPMAASDEVNLIESRTVVPLNTWVLISNFKVAYNILRRPDGTFNRHLAEYLDRKVTANANPVDGVFSFDVLIDRRINLLSRVYRPAYADQEQPPSILDLEKPVDGDIVPVILFFHGGSFAHSSANSAIYDTLCRRLVGLCKCVVVSVNYRRAPENPYPCAYDDGWIALNWVNSRSWLKSKKDSKVHIFLAGDSSGGNIAHNVALRAGESGIDVLGNILLNPMFGGNERTESEKSLDGKYFVTVRDRDWYWKAFLPEGEDREHPACNPFSPRGKSLEGVSFPKSLVVVAGLDLIRDWQLAYAEGLKKAGQEVKLMHLEKATVGFYLLPNNNHFHNVMDEISAFVNAE
MSLAMINDSIEQVWRDFSIRPAAEADDATWCRRVYLDVIGRIPSLEELSEFMSDRDSNKRANLVDRLLNDDRYTEEYANHWSTVWTNLLIGRSGGTDRRDLTNRTGMQKYLRDSFAGNKTYDQMTYELVTAEGSTTPGNANFNGAVNFLVDKVNAEKGTLATSSVSRIFLGQQVQCTQCHNHPFNQWKQQKFWEFNAFFRQTRALRRFVDGTQDIESAELVSQDFAGEANDPEDALVFYELRNGLQKVAYPVFTDGTEIEKSGFVEDVNRREELGRLMLQSEYLDKMIVNRMWSMFLGYGFTRPIDDLGPHNPSSHPELLENLGKEFRANSYDLKKLITWITLSRPYQLASTLSASNEIDDPTIGESPKFSRFYLRQMSAEQLYASMVTASNAQSKGSYEQQEAERRRWLSQFVVAFGNDEGTETTTFNGSIPQALMLFNGDLTKNAISLEAGSFLDQLSQTGRSPKDRVTRLFLSGLARRPTKNEVSIASKLLVARKGDEPEMLQDMWWAILNSNEFIMQHEGHHHHHH
MSLFFTFMRGVVRVILFVINGNAHYENKEKLPKDQNYVLVAPHRTWWEPLYLAVAGSPKKFSFMAKKELFKNPVLRFILKHANAFPVDREKPGPSAIKTPVKILKNSDLSLIMFPSGTRHSSELKGGVALIAKMGRVPIVPSVYQGPLTLKELFKRKKVTVRFGEPIDISDIKKMDKDGLAEVERRMQEAFDQLDKEIDPTFKYESTEEGHHHHHH
MDGAQPKTNFFERLIARLAREPDSAEDVLNLLRQAHEQEVFDADTLTRLEKVLDFAELEVRDAMITRSRMNVLKENDSIERITAYVIDTAHSRFPVIGEDKDEVLGILHAKDLLKYMFNPEQFHLKSVLRPAVFVPEGKSLTALLKEFREQRNHMAIVIDEYGGTSGLVTFEDIIEQIVGDIEDEFD
